In the assay the target is T1, mixed lineage pseudokinase ligand (human (endogenous in post-mortem brain grey matter)), Q8NB16.
T1 chain: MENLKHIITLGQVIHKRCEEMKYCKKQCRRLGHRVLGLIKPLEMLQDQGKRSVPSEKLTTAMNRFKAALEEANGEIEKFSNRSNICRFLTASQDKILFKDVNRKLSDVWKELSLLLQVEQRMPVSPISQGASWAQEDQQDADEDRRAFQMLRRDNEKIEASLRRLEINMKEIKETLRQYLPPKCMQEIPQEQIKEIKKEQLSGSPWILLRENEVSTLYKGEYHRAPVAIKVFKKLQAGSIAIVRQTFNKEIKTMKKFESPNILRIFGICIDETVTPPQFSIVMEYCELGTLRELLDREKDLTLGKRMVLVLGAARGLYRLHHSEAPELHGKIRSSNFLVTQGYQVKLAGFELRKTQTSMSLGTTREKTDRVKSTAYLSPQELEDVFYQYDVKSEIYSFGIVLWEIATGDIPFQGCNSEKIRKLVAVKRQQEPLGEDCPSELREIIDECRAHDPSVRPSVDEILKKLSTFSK
Briefly: non-reducing gel electrophoresis and Western blot; MS grey matter extracted in native conditions (TBS, 0.1% Triton X-100); 3-8% Tris-acetate gels in non-reducing conditions; blot for MLKL. The settings on record: remark: other sources report otherwise. In general terms: In western blotting, separated proteins are transferred to a membrane and probed.

This is an account of results in article PMC7952371.

B1: mixed lineage pseudokinase ligand, Q8NB16 1-471 (natural protein)
chain: T1 chain
Broadly, the stoichiometry N is a count of units in the complex or per binding partner. For B1, the stoichiometry N was 4.
